Reference: article PMC12177922, “In Vivo Ribosome-Amplified MetaBOlism, RAMBO, Effect Observed by Real Time Pulse Chase, RTPC, NMR Spectroscopy” (Biochemistry, 2025)

Assays:
[1] = target: Pyruvate kinase I from E. coli, PYK-F (E. coli) (UniProt P0AD61)
[2] = target: Pyruvate kinase I from E. coli, PYK-F (E. coli) (UniProt P0AD61); remark: listed apart in the source
[3] = target: Pyruvate kinase I from E. coli, PYK-F (E. coli) (UniProt P0AD61); remark: listed apart in the source
[4] = target: Pyruvate kinase I from E. coli, PYK-F (E. coli) (UniProt P0AD61); test: ribosome titration of enzyme activity (direct 1H NMR kinetic assay); 120 nM PYK-F, ribosomes titrated up to 8 uM; change of initial velocity (pyruvate methyl peak) at 2 mM PEP and 4 mM ADP; 10 mM sodium phosphate pH 7.5, 50 mM KCl, 10 mM MgCl2, 10 °C; one site-specific binding model …; saturation not reached

kcat of PYK-F (ADP saturation curve) with 2 μM ribosomes against none [1]: 10% | PYK-F activity (initial velocity, NMR kinetic assay) with 3 μM ribosomes against none [2]: 35% | decrease in sum of the influx rates of lactate, ethanol and acetate in living E. coli BL21(DE3) (RTPC-NMR), 2x chloramphenicol against none [3]: 32% | Kd [4]: 10 µM
Substance: Intact 70S ribosomes from E. coli strain MRE600 (from UniProt P60723 1-201; P0AG55 1-177; P0A7R1 1-149; P0AA10 1-142; P0AG44 1-127; P0AG48 1-103; P61175 1-110; P68919 1-94; P0A7L8 1-85; P0A7M9 1-70; P0AG67 1-557; P0A7V3 1-233; P0A7X3 1-130; P0A7S3 1-124; P0A7U7 1-87) (complex)
